Ten molecules from PMC5402353 (Journal of molecular biology, 2017) can be followed below.

Data set [1] deals with T1, hexYme1p (S. cerevisiae) (UniProt P32795).
T1 sequence: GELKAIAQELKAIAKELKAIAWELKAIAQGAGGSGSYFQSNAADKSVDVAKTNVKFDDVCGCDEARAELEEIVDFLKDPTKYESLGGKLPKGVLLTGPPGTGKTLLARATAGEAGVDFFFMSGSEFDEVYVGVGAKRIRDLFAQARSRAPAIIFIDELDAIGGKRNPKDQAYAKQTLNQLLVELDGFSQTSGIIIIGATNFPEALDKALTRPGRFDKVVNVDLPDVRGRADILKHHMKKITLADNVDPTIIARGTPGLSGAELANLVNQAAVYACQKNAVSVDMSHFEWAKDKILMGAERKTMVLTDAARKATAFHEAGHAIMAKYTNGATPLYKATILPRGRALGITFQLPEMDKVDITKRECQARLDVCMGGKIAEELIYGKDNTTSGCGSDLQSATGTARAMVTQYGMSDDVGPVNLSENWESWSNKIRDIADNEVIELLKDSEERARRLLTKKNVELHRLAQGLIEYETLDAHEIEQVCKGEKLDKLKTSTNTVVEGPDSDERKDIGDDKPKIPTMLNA

The target of data set [2] is T1, hexYme1p (S. cerevisiae). The source holds these as a separate data set.
The data set “SEC” deals with the molecule itself. Description: SEC. On the technique in general: Size exclusion chromatography separates by hydrodynamic size, large species first.

As usually defined, the stoichiometry N is the number of molecules, sites or subunits per partner or assembly.

Where two headings read alike, the source gives them in different places.

For the molecule T13-λcI^N (from UniProt P53299 1-13), in the data set with hexYme1p (S. cerevisiae) [1], the initial rate of degradation of 20 μM substrate by hexYme1p (min^−1 enz6^−1) worked out at 0.22.

Regarding T10-λcI^N (from UniProt P87108 1-15), the initial rate of degradation of 20 μM substrate by hexYme1p (min^−1 enz6^−1) with hexYme1p (S. cerevisiae) [1] came out at 0.7. Consider T12-λcI^N (from UniProt P32830 1-15), for which the initial rate of degradation of 20 μM substrate by hexYme1p (min^−1 enz6^−1) with hexYme1p (S. cerevisiae) [1] came out at 0.33. Consider T9-λcI^N (from UniProt O74700 1-8), for which the initial rate of degradation of 20 μM substrate by hexYme1p (min^−1 enz6^−1) with hexYme1p (S. cerevisiae) [1] is 0.03.

B1: Tim13^3–7A (natural protein)
chain: MGAAAAAGGGAPSQQKEAATTAKTTPNPIAKELKNQIAQELAVANATELVNKISENCFEKCLTSPYATRNDACIDQCLAKYMRSWNVISKAYISRIQNASASGEI
For B1, the initial rate of degradation by hexYme1p, without DTT (min^−1 enz6^−1) in the data set with hexYme1p (S. cerevisiae) [1] is 0.05.

B2: Tim10^2–6A (natural protein)
chain: MAAAAAGGGQPQLSSQQKIQAAEAELDLVTDMFNKLVNNCYKKCINTSYSEGELNKNESSCLDRCVAKYFETNVQVGENMQKMGQSFNAAGKF
Turning to B2, the initial rate of degradation by hexYme1p (min^−1 enz6^−1) with hexYme1p (S. cerevisiae) [2] amounted to 0.05.

B3: Tim10^F3A/F6A (natural protein)
chain: MSALGAGGGQPQLSSQQKIQAAEAELDLVTDMFNKLVNNCYKKCINTSYSEGELNKNESSCLDRCVAKYFETNVQVGENMQKMGQSFNAAGKF
As for B3, the initial rate of degradation by hexYme1p (min^−1 enz6^−1) with hexYme1p (S. cerevisiae) [2] stood at 0.11.

B4: Tim10^F-alone (natural protein)
chain: MAFAAFAGGQPQLSSQQKIQAAEAELDLVTDMFNKLVNNCYKKCINTSYSEGELNKNESSCLDRCVAKYFETNVQVGENMQKMGQSFNAAGKF
The molecule B4 returned an initial rate of degradation by hexYme1p (min^−1 enz6^−1) with hexYme1p (S. cerevisiae) [2] of 0.43.

B5: Tim9^D2F (natural protein)
chain: MFALNSKEQQEFQKVVEQKQMKDFMRLYSNLVERCFTDCVNDFTTSKLTNKEQTCIMKCSEKFLKHSERVGQRFQEQNAALGQGLGR
B5: the initial rate of degradation by hexYme1p, without DTT (min^−1 enz6^−1) with hexYme1p (S. cerevisiae) [2] stood at 0.16.

B6: hexYme1p (enzyme, S. cerevisiae)
chain: GELKAIAQELKAIAKELKAIAWELKAIAQGAGGSGSYFQSNAADKSVDVAKTNVKFDDVCGCDEARAELEEIVDFLKDPTKYESLGGKLPKGVLLTGPPGTGKTLLARATAGEAGVDFFFMSGSEFDEVYVGVGAKRIRDLFAQARSRAPAIIFIDELDAIGGKRNPKDQAYAKQTLNQLLVELDGFSQTSGIIIIGATNFPEALDKALTRPGRFDKVVNVDLPDVRGRADILKHHMKKITLADNVDPTIIARGTPGLSGAELANLVNQAAVYACQKNAVSVDMSHFEWAKDKILMGAERKTMVLTDAARKATAFHEAGHAIMAKYTNGATPLYKATILPRGRALGITFQLPEMDKVDITKRECQARLDVCMGGKIAEELIYGKDNTTSGCGSDLQSATGTARAMVTQYGMSDDVGPVNLSENWESWSNKIRDIADNEVIELLKDSEERARRLLTKKNVELHRLAQGLIEYETLDAHEIEQVCKGEKLDKLKTSTNTVVEGPDSDERKDIGDDKPKIPTMLNA
On to B6, for which, in the data set “SEC”, the “stoichiometry N” value was 6.
